From patent publication US20220064286A1 (Genentech, published 2022) come the findings set out here.

Assay [1] concerns the target T1, hTIGIT mutant I68A (human, UniProt Q495A1).
T1 sequence (TIGIT, looked up): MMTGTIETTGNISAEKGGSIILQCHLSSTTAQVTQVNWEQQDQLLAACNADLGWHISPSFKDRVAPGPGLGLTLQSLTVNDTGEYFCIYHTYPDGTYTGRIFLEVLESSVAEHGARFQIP
In words: SPR (BIACORE), N=2. On the technique in general: SPR reads the build-up and loss of mass on a sensor chip optically.

For assay [2], the target named is T2, hTIGIT mutant T117A (human, UniProt Q495A1).
T2 sequence (TIGIT, looked up): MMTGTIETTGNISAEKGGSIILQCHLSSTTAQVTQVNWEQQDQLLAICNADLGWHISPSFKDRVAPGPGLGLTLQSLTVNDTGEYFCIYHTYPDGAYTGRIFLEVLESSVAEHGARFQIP
In words: SPR (BIACORE), N=2.

Assay [3] has as its target T3, hTIGIT mutant L65A (human, UniProt Q495A1).
T3 sequence (TIGIT, looked up): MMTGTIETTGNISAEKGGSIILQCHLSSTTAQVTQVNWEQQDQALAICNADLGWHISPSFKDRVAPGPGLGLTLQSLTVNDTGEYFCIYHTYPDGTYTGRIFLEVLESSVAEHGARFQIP
In words: SPR (BIACORE), N=2.

The target of assay [4] is T4, hTIGIT mutant Q56A (human, UniProt Q495A1).
T4 sequence (TIGIT, looked up): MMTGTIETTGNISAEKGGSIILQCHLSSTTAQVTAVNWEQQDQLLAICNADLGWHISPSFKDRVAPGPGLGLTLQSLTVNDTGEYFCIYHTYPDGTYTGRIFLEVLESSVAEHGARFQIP
In words: SPR (BIACORE), N=2.

Assay [5] has as its target T5, hTIGIT mutant Y113A (human, UniProt Q495A1).
T5 sequence (TIGIT, looked up): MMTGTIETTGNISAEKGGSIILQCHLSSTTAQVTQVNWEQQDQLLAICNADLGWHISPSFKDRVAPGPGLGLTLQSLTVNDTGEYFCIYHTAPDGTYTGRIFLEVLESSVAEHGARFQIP
Put plainly: SPR (BIACORE), N=2.

Assay [6] deals with T6, hTIGIT mutant N70A (human, UniProt Q495A1).
T6 sequence (TIGIT, looked up): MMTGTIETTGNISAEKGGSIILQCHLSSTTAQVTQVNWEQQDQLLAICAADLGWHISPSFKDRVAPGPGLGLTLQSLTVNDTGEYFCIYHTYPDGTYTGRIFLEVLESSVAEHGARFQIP
In words: SPR (BIACORE), N=2.

Assay [7] has as its target T7, hTIGIT mutant E60A (human, UniProt Q495A1).
T7 sequence (TIGIT, looked up): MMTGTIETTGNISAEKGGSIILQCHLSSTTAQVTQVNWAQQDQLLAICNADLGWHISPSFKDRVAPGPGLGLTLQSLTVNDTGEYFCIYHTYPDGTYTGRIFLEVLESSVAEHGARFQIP
Put plainly: SPR (BIACORE), N=2.

In assay [8] the target is T8, hTIGIT mutant H111A (human, UniProt Q495A1).
T8 sequence (TIGIT, looked up): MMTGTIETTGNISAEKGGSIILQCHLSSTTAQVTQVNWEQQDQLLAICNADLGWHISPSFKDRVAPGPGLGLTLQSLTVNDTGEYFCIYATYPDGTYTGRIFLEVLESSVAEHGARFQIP
Put plainly: SPR (BIACORE), N=2.

Assay [9] concerns the target T9, human TIGIT protein (human, UniProt Q495A1 22-141, limits assumed).
T9 construct: Recombinant protein (Genentech) used in ELISA screening and as SPR analyte; also called TIGIT antigen
T9 sequence: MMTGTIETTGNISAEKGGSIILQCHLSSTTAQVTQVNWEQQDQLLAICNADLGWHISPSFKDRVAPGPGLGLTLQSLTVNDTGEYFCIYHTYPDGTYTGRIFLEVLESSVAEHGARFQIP
In words: SPR (BIACORE), N=2.

In assay [10] the target is T10, hTIGIT mutant Q53A (human, UniProt Q495A1).
T10 sequence (TIGIT, looked up): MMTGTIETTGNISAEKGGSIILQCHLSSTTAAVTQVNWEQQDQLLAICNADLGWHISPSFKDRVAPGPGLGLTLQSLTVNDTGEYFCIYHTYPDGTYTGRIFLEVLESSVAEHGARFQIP
Put plainly: SPR (BIACORE), N=2.

In assay [11] the target is T11, cynomolgus monkey (cyno) TIGIT protein (cynomolgus monkey, UniProt A0A7N9I9V4 89-209). In words: SPR, captured mAb.
T11 sequence (A0A7N9I9V4 entry or part of it): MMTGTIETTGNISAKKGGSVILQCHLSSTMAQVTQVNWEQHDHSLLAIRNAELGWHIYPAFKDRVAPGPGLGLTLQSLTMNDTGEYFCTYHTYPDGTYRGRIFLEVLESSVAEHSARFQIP
In assay [12] the target is T9, human TIGIT protein. Put plainly: SPR, captured mAb.
The target of assay [13] is T1, hTIGIT mutant I68A. In words: SPR (BIACORE) KD normalized to WT, N=2.
Assay [14] deals with T2, hTIGIT mutant T117A. Put plainly: SPR (BIACORE) KD normalized to WT, N=2.
Assay [15] addresses T3, hTIGIT mutant L65A. Put plainly: SPR (BIACORE) KD normalized to WT, N=2.
The target of assay [16] is T4, hTIGIT mutant Q56A. In words: SPR (BIACORE) KD normalized to WT, N=2.
The target in assay [17] is T5, hTIGIT mutant Y113A. Put plainly: SPR (BIACORE) KD normalized to WT, N=2.
The target of assay [18] is T6, hTIGIT mutant N70A. Put plainly: SPR (BIACORE) KD normalized to WT, N=2.
The target in assay [19] is T7, hTIGIT mutant E60A. Put plainly: SPR (BIACORE) KD normalized to WT, N=2.
In assay [20] the target is T8, hTIGIT mutant H111A. Put plainly: SPR (BIACORE) KD normalized to WT, N=2.
The target in assay [21] is T9, human TIGIT protein. In words: SPR (BIACORE) KD normalized to WT, N=2.
The target in assay [22] is T10, hTIGIT mutant Q53A. In words: SPR (BIACORE) KD normalized to WT, N=2.
Assay [23] deals with T11, cynomolgus monkey (cyno) TIGIT protein. Put plainly: SPR, against h7E7.L1H1 (implied). The procedure:
(§1) Briefly, a series S CM5 biosensor chip was activated with N-ethyl-N′-(3-dimethylaminopropyl)-carbodiimide hydrochloride (EDC) and N-hydroxysuccinimide (NHS) reagents according to the supplier's (GE Healthcare Biosciences, Piscataway, N.J.) instructions, and a human antibody capture kit was applied to couple goat anti-human Fc IgGs in order to achieve approximately 10,000 response units (RU) on each flow cell, followed by blocking un-reacted groups with 1M ethanolamine.
(§2) (flow rate: 30 μl/min) with no regeneration between injections. The sensorgrams were recorded and evaluated by BIAcore™ T200 Evaluation Software (version 2.0) after subtraction of reference cell signal. Association rates (kₒₙ) and dissociation rates (koff) were calculated using a simple one-to-one Langmuir binding model. The equilibrium dissociation constant (KD) was calculated as the ratio koff/kₒₙ.
(§3) The first humanized versions, h6B2, L1H1, h10A5.L1H1, h7E7, L1H1, and h15C8.L1H1, which contain both rat CDRs and framework residues at Vernier positions, and the fully humanized versions, h6B2.L2H5, h10A5.L4H4, h7E7.L5H9, and h15C8.L5H9, which contain only rat CDRs were subject to BIAcore affinity measurement by comparison with original rat antibodies, rat6B2, rat10A5, rat7E7 and rat 15C8. For binding affinity determinations of TIGIT antibodies against human TIGIT, cynomolgus monkey TIGIT and human alanine-scanned TIGIT mutants by single-cycle kinetics, Surface Plasmon Resonance (SRP) measurement with a BIACORE™-T200 instrument was used, as described above.

Assay [24] addresses T9, human TIGIT protein. In words: SPR, against h7E7.L1H1 (implied). On the procedure:
as §1, §2, §3

Assay [25] deals with T11, cynomolgus monkey (cyno) TIGIT protein. Put plainly: SPR, against h15C8.L1H1 (implied). The procedure: as §1, §2, §3
Assay [26] has as its target T9, human TIGIT protein. Put plainly: SPR, against h15C8.L1H1 (implied). The procedure:
as §1, §2, §3

The Kd is the constant that tells how readily two partners part at equilibrium. A word on the koff: it is the rate constant with which the complex falls apart. For orientation: kon means a measure of how fast the partners come together.

B1: h6B2.L2H5 (antibody, V domains shown)
VH: EVTLKESGPALVKPTQTLTLTCTFSGFSLSTYGMGVSWIRQPPGKALEWLASIWWNGNTYYNPSLKSRLTITKDTSKNQVVLTMTNMDPVDTATYYCAHTGGAVITWFAYWGQGTLVTVSS
VL: DIQMTQSPSSLSASVGDRVTITCKASQSVGKNIAWYQQKPGKAPKLLIYYASNRYTGVPSRFSGSGSGTDFTFTISSLQPEDIATYYCQHIYNSPYPFGQGTKVEIK
notes: Fully humanized version; FR/HVR pieces in order
As to B1, the Kd turned out to be 11.5 nM in the assay with hTIGIT mutant I68A [1]; 1.1 nM with hTIGIT mutant T117A [2]; 3 nM in the assay with hTIGIT mutant L65A [3]; 1.3 nM with hTIGIT mutant Q56A [4]; 2.5 nM with hTIGIT mutant Y113A [5]; 2.8 nM with hTIGIT mutant N70A [6]. Moreover, the Kd came to 2.4 nM with hTIGIT mutant E60A [7]; 1.3 nM with hTIGIT mutant H111A [8]; 0.7 nM in the assay with human TIGIT protein [9]; 0.9 nM with hTIGIT mutant Q53A [10]; 0.97 nM in assay [11]; 0.48 nM with human TIGIT protein [12]. Also, the koff in assay [11] amounted to 0.00124 s⁻¹; with human TIGIT protein [12], 0.00222 s⁻¹. In addition, the kon is 1.28e+06 M⁻¹ s⁻¹ in [11] and 4.65e+06 M⁻¹ s⁻¹ with human TIGIT protein [12]. For the same molecule, the “Binding affinity drop vs. WT” value was determined as 16.4 fold with hTIGIT mutant I68A [13]; 1.6 fold with hTIGIT mutant T117A [14]; 4.3 fold with hTIGIT mutant L65A [15]; 1.9 fold with hTIGIT mutant Q56A [16]; 3.6 fold with hTIGIT mutant Y113A [17]; 4 fold with hTIGIT mutant N70A [18]. For the same molecule, the “Binding affinity drop vs. WT” value is 3.4 fold in the assay with hTIGIT mutant E60A [19], 1.9 fold in the assay with hTIGIT mutant H111A [20], 1 fold in the assay with human TIGIT protein [21] and 1.3 fold in the assay with hTIGIT mutant Q53A [22].

B2: h7E7.L1H2 (antibody, V domains shown)
VH: EVQLVQSGAEVKKPGASVKVSCKASGYTFTEYSIYWVRQAPGQRLEWIGRIDPKNGRTYYVDKFKNRATLTADTSASTAYMELSSLRSEDTAVYFCTRIYGFYFDFWGQGTLVTVSS
VL: DIQLTQSPSFLSASVGDRVTITCKGSQNVNKYLVWYQQKPGKAPKLLIYNTDNLQSGIPSRFSGSGSGTEYTLTISSLQPEDFATYFCYQYNNGFTFGQGTKVEIK
notes: VH: I47W against h7E7.L1H1; FR/HVR pieces
Regarding B2, the “fold drop in binding affinity” value (in assay [23]; with human TIGIT protein [24]) was > 100 fold in each case.

B3: h7E7.L5H9 (antibody, V domains shown)
VH: EVQLVQSGAEVKKPGASVKVSCKASGYTFTEYSIYWVRQAPGQRLEWMGRIDPKNGRTYYVDKFKNRVTITRDTSASTAYMELSSLRSEDTAVYYCARIYGFYFDFWGQGTLVTVSS
VL: DIQLTQSPSFLSASVGDRVTITCKGSQNVNKYLVWYQQKPGKAPKLLIYNTDNLQSGVPSRFSGSGSGTEFTLTISSLQPEDFATYYCYQYNNGFTFGQGTKVEIK
notes: Fully humanized version; FR/HVR pieces
As to B3, the “fold drop in binding affinity” value (in assay [23]; with human TIGIT protein [24]) was > 100 fold each time. In addition, the Kd (in assay [11]; with human TIGIT protein [12]) was > 100 nM in each case.

B4: h7E7.L1H9 (antibody, V domains shown)
VH: EVQLVQSGAEVKKPGASVKVSCKASGYTFTEYSIYWVRQAPGQRLEWMGRIDPKNGRTYYVDKFKNRVTITRDTSASTAYMELSSLRSEDTAVYYCARIYGFYFDFWGQGTLVTVSS
VL: DIQLTQSPSFLSASVGDRVTITCKGSQNVNKYLVWYQQKPGKAPKLLIYNTDNLQSGIPSRFSGSGSGTEYTLTISSLQPEDFATYFCYQYNNGFTFGQGTKVEIK
notes: VH: all seven Vernier residues back to human; FR/HVR pieces
Turning to B4, the “fold drop in binding affinity” value (in [23]; in the assay with human TIGIT protein [24]) was > 100 fold throughout.

B5: h15C8.L1H9 (antibody, V domains shown)
VH: EVQLVQSGAEVKKPGASVKVSCKASGYTFTEHSIYWVRQAPGQRLEWMGRIDPKNGRTYFVDKFKNRVTITRDTSASTAYMELSSLRSEDTAVYYCARIDGFYFDFWGQGTLVTVSS
VL: DIQLTQSPSFLSASVGDRVTITCKGSQNVNKYLVWYQQKPGKAPKLLIYSTDNLQSGIPSRFSGSGSGTEYTLTISSLQPEDFATYFCYQYNNGFTFGQGTKVEIK
notes: as for B4
In the case of B5, the “fold drop in binding affinity” value (in [25]; in the assay with human TIGIT protein [26]) was > 100 fold in each case.

B6: h15C8.L1H3 (antibody, V domains shown)
VH: EVQLVQSGAEVKKPGASVKVSCKASGYTFTEHSIYWLRQAPGQRLEWIGRIDPKNGRTYFVDKFKNRATLTTDTSASTAYMELSSLRSEDTAVYFCARIDGFYFDFWGQGTLVTVSS
VL: DIQLTQSPSFLSASVGDRVTITCKGSQNVNKYLVWYQQKPGKAPKLLIYSTDNLQSGIPSRFSGSGSGTEYTLTISSLQPEDFATYFCYQYNNGFTFGQGTKVEIK
notes: VH: I47W against h15C8.L1H1; FR/HVR pieces
With B6, the “fold drop in binding affinity” value (in [25]; with human TIGIT protein [26]) was > 100 fold in each case.
